# Target: the molecule itself
# Experiment: SEC + other: dynamic light scattering; His-tag Bfr (alone or in ratios with WT Bfr) declustered at pH 2.0, incubated with Pro-Q Sapphire 365 NTA dye and Ni2+, reclustered by dialysis to pH 7.0 (methods: pH 8.0), then size exclusion
protein,measurement,value
"His-tagged Escherichia coli bacterioferritin (C-terminal His-tag) (natural protein, Escherichia coli bacterioferritin (Bfr) subunit; the gene coding for E. coli Bfr was cloned; also called His-tag Bfr; His-tagged Bfr; source: details in Supplementary Materials; not shown: His6 (after a two amino acid linker Leu-Glu), C-terminal, kept; copies: 24) not shown",stoichiometry N,24

# — publication PMC10301331, “Molecular Engineering of E. coli Bacterioferritin: A Versatile Nanodimensional Protein Cage” (Molecules, 2023)
